# Laboratory results reported in article PMC4288174 (Nucleic Acids Research, 2014).
# Target: Recombinant hemagglutinin-tagged full-length CSB (human, UniProt Q03468 1-1493)
# Test: pull-down; ΔN-SNM1A (500 ng) with or without HA-CSB (500 ng) and α-HA magnetic beads; 20 mM HEPES pH 7.9, 4 mM MgCl2, 0.05 mM ATP, 40 μg/ml BSA, 1 mM DTT, 4°C, 2 h; silver stain
# Settings: both partners purified
# Recombinant hemagglutinin-tagged full-length CSB, sequence (Q03468 whole entry): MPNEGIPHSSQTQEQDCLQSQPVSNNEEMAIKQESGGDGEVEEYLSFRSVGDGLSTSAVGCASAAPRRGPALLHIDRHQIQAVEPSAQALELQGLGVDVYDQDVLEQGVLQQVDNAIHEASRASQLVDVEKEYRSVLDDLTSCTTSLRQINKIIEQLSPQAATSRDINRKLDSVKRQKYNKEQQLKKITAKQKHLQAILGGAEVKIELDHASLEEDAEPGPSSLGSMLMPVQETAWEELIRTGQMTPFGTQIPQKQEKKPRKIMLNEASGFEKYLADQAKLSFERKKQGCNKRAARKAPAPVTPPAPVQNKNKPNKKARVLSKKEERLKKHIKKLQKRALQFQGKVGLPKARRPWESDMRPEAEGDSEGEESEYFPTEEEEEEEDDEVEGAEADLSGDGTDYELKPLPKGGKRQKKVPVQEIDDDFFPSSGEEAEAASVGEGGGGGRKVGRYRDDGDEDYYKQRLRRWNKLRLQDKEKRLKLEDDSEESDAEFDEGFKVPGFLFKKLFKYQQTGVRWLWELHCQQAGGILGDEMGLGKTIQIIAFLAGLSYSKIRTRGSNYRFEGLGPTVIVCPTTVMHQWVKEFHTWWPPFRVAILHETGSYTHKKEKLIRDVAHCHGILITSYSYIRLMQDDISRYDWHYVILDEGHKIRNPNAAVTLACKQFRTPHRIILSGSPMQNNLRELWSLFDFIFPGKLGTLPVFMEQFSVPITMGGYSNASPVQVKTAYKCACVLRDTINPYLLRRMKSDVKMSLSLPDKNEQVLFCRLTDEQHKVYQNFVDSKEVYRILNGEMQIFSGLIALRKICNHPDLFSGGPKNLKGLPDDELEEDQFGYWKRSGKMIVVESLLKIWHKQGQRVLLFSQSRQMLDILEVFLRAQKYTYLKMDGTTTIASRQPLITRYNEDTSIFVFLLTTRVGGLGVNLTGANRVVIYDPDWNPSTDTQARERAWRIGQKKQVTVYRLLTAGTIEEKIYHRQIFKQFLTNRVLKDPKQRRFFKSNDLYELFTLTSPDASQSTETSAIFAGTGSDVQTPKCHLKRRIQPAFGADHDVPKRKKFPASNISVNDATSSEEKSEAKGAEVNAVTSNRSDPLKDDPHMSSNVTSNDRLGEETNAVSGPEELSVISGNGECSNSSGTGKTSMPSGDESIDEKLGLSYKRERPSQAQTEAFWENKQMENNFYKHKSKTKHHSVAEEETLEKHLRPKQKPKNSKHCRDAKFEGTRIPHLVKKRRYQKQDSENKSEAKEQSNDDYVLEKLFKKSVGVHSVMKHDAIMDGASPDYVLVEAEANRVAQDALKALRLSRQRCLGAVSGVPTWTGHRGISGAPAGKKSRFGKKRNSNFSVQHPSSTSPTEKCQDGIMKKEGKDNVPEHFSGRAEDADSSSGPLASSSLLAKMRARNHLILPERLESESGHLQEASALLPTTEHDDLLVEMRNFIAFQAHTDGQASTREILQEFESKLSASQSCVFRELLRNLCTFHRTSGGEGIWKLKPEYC
binder,measurement,value
"SNM1A nuclease fragment consisting of residues 608 to 1040 (domain or fragment, human, UniProt Q6PJP8 608-1040, looked up) SDLEFDASTLHESQLSVELSSERSQRQKKRCRKSNSLQEGACQKRSDHLINTESEAVNLSKVKVFTKSAHGGLQRGNKKIPESSNVGGSRKKTCPFYKKIPGTGFTVDAFQYGVVEGCTAYFLTHFHSDHYAGLSKHFTFPVYCSEITGNLLKNKLHVQEQYIHPLPLDTECIVNGVKVVLLDANHCPGAVMILFYLPNGTVILHTGDFRADPSMERSLLADQKVHMLYLDTTYCSPEYTFPSQQEVIRFAINTAFEAVTLNPHALVVCGTYSIGKEKVFLAIADVLGSKVGMSQEKYKTLQCLNIPEINSLITTDMCSSLVHLLPMMQINFKGLQSHLKKCGGKYNQILAFRPTGWTHSNKFTRIADVIPQTKGNISIYGIPYSEHSSYLEMKRFVQWLKPQKIIPTVNVGTWKSRSTMEKYFREWKLEAGY",binding result,binds
